Source: article PMC3890319, “Role of Receptor Activity Modifying Protein 1 in Function of the Calcium Sensing Receptor in the Human TT Thyroid Carcinoma Cell Line” (PLoS ONE, 2014)

T1: Calcium Sensing Receptor, C-terminal Citrine fusion (UniProt P41180 20-1078)
T1 construct: Calcium Sensing Receptor (CaSR); cDNA cloned without its stop codon between HindIII and Not1 of pcDNA3.1-Citrine; Acceptor of the FRET pair; it says only that the cDNA was cloned excluding the stop codon; also called CaSR; CaSR-citrine; source: COS-7, transfected by electroporation (pcDNA3.1), in fixed cells; not shown: Citrine, C-terminal, kept
T1 sequence (looked up): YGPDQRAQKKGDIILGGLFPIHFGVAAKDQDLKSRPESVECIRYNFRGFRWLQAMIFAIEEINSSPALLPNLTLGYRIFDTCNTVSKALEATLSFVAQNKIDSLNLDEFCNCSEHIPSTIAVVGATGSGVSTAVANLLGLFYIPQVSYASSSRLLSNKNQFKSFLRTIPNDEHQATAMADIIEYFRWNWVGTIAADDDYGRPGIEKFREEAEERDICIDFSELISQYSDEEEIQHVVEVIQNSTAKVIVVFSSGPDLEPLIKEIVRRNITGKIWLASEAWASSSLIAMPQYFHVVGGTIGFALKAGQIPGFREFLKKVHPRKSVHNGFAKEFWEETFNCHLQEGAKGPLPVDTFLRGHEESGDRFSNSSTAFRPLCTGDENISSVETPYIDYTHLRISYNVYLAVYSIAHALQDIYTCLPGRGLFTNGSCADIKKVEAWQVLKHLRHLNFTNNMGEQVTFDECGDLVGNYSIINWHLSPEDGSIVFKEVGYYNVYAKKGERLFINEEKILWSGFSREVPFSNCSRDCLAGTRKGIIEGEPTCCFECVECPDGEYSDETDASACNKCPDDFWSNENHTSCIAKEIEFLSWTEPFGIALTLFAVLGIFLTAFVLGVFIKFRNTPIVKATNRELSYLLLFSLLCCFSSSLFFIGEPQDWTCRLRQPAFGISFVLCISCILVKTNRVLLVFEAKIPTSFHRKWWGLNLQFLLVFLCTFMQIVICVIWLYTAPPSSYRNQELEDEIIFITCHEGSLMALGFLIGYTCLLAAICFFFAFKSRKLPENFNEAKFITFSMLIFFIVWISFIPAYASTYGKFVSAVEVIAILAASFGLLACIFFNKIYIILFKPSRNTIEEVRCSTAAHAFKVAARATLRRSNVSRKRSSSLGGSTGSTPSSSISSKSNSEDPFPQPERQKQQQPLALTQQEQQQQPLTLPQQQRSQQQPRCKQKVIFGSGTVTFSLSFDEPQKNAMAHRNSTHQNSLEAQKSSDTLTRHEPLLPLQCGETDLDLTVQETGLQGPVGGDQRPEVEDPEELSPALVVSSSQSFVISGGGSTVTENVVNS


Molecular target: T1, Calcium Sensing Receptor, C-terminal …
Assay: FRET or BRET; sensitized-emission FRET (NFRET, PixFRET) and FRET-based stoichiometry in cell-surface regions of interest (50-pixel dots) of fixed COS-7 cells co-transfected with CaSR-Citrine (acceptor) and RAMP-Cerulean (donor); confocal microscopy at room temperature; NFRET as percent of a Cerulean-linker-Citrine positive control; negative control Citrine alone + RAMP-Cerulean
Conditions: partners not purified

Binder | stoichiometry N
Receptor Activity Modifying Protein 3, C-terminal Cerulean fusion (natural protein, UniProt O60896 24-148, looked up, Receptor Activity Modifying Protein 3 (RAMP3); cDNA cloned without its stop codon between Kpn1 and Not1 of pcDNA3.1-Cerulean; Donor of the FRET pair; also called RAMP3; RAMP3-Cer; source: COS-7, transfected by electroporation (pcDNA3.1), in fixed cells; not shown: Cerulean, C-terminal, kept) RAGGCNETGMLERLPLCGKAFADMMGKVDVWKWCNLSEFIVYYESFTNCTEMEANVVGCYWPNPLAQGFITGIHRQFFSNCTVDRVHLEDPPDEVLIPLIVIPVVLTVAMAGLVVWRSKRTDTLL | 1.5 CaSR:RAMP
Receptor Activity Modifying Protein 1, C-terminal Cerulean fusion (natural protein, UniProt O60894 27-148, looked up, Receptor Activity Modifying Protein 1 (RAMP1); cDNA cloned without its stop codon between Kpn1 and Not1 of pcDNA3.1-Cerulean; Donor of the FRET pair; also called RAMP1; RAMP1-Cer; source: COS-7, transfected by electroporation (pcDNA3.1), in fixed cells; not shown: Cerulean, C-terminal, kept) CQEANYGALLRELCLTQFQVDMEAVGETLWCDWGRTIRSYRELADCTWHMAEKLGCFWPNAEVDRFFLAVHGRYFRSCPISGRAVRDPPGSILYPFIVVPITVTLLVTALVVWQSKRTEGIV | 2.19 CaSR:RAMP
